In article PMC3601014, “Blood-brain barrier transport of amyloid beta peptides in efflux pump knock-out animals evaluated by in vivo optical imaging” (Fluids and Barriers of the CNS, 2013):
Values belong to the compound of their own block, whether it stands above or below them.

Experiments:
[1] = test system: Abcb1 and Abcg2; set-up: method as in PMID 22391220; settings: in situ brain perfusion, Abcb1-deficient mice; cited from earlier work
[2] = Western blot analysis of Aβ peptide solution (monomers/dimers); type: physicochemical; settings: dissolved in 10 mM NaOH, HEPES to pH 8.0, data not shown
Method: Aβ1-40 peptide used in this study for optical imaging/tracking is the most abundant Aβ peptide found in the cerebral vasculature and is more soluble than Aβ1-42 peptide. Aβ1-40 peptides (1 mg/vial) were dissolved in 250 μL of 10 mM NaOH, and then 12.5 μL of 1 M HEPES [4-(2-hydroxyethyl)-1-piperazineethanesulfonic acid] was added to bring the pH to 8.0. The peptides were divided into 2 tubes (0.5 mg/tube) and kept at −80°C. Because Aβ peptides are commonly present as beta sheet structure in solution, Western blot analyses of the mixtures were performed, and the majority of the peptides (>95%) were monomers with a small proportion of dimers (data not shown). Aβ1-40 or scrambled Aβ40-1 peptides (0.5 mg, molecular weight 4329.86D) were labeled with the near-infrared fluorescent dye Cy5.5 (molecular weight 1128.42D) using the labeling kit (Cy5.5™ Mono NHS ester) as per manufacturer’s instructions.

[3] = molecular target: T1, Abcg2 (Mus musculus, UniProt Q7TMS5); experiment: Time-domain in vivo optical imaging of head ROI, Abcg2-KO mice; settings: i.v. injection, imaged 2–8 h, 4 animals per group
T1 construct: five pairs of adult wild-type and Abcg2^-KO mice were intravenously injected via the tail vein; tissue Taconic Farms Inc; host or cells: living FVB mice (head ROI / brain, blood-brain barrier)
T1 sequence (Q7TMS5 1-657): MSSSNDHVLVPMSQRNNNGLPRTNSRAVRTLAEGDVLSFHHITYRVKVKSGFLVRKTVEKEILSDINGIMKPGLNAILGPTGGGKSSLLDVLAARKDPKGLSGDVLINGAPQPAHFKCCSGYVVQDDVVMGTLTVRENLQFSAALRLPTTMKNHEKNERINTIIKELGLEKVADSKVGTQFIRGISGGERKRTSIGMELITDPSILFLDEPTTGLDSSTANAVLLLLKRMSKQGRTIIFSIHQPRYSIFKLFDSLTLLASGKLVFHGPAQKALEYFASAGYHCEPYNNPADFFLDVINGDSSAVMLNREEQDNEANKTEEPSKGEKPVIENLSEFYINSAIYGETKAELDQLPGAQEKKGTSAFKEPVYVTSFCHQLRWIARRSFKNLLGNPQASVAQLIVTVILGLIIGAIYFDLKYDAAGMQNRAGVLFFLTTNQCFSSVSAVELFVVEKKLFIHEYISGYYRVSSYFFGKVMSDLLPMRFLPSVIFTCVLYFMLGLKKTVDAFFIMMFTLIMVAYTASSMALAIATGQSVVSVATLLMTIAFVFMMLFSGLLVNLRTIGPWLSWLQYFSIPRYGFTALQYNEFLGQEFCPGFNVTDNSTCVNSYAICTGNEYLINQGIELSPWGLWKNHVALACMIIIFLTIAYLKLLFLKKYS
From the text: (§1) The experiments with animals have been approved by the Animal Care Committee of the National Research Council of Canada - Ottawa (NRC). Wild-type (wt), mdr-1a/b (Abcb1a/b) knockout (Abcb1^KO), and Abcg2^-KO mice of FVB background were purchased from the Taconic Farms Inc (New York, USA) and maintained in the NRC Animal Facility at Ottawa. Pairs of adult wild-type mice and Abcb1^-KO and pairs of adult wild-type and Abcg2^-KO mice of the same body weight and same sex were matched for injections and imaging experiments. After initial testing of fluorescence signal with various injected doses of Cy5.5-labeld Aβ peptides, the optimal dose selected for the experiments was 100 μg of labelled peptide in 200-μL volume. […]
(§2) Briefly, each animal was positioned on a platform (dorsal side facing up) that was then placed on a heated plate (at 36°C) in the imaging system. […] The fluorescence emission at 700 nm was collected by a highly sensitive photomultiplier tube offset by 3 mm for diffuse optical topography reconstruction. […] A pulsed light source and time-resolved detection allows the system to resolve the nanosecond timescale of fluorescence emission. […] The data were thus recorded as TPSF and the images were reconstructed as fluorescence concentration maps. […] Brains were then extracted and scanned ex-vivo for fluorescence concentration

[4] = Time-domain in vivo optical imaging of head ROI, wild-type mice; set-up: species or system mouse; settings: i.v. injection, imaged 2–8 h; wild-type and KO mice
From the text: as §1, §2

[5] = no reference given; cited from earlier work
From the text: To enable prospective in vivo optical imaging of the distribution of peripherally-injected Aβ peptides, the peptides were labeled with the near-infrared fluorescent dye Cy5.5. Since the principal aim of the present study was to monitor brain distribution of Cy5.5-labeled Aβ peptide in mice lacking major ABC transporters, the fluorescent tracer itself should not be the substrate for these transporters. To compare the permeability of BBB for Cy5.5 in wild-type, Abcb1^-KO and Abcg2^-KO animals, equal amounts of Cy5.5 tracer were intravenously injected into two pairs of wild-type and knockout mice ...

[6] = test system: mdr-1 P-glycoprotein/Abcb1; experiment: Time-domain in vivo optical imaging of head ROI, Abcb1-KO mice; set-up: species or system mouse; settings: i.v. injection, imaged 2–8 h, data not shown
From the text: as §1, §2

[7] = Serial whole-body imaging (biodistribution and systemic elimination); type: in vivo, mouse; settings: 100 μg i.v.; wild-type, Abcg2-KO and Abcb1-KO mice
Method: The animals were anesthetized with inhaled isoflurane (4% for induction and 1.5% for maintenance) and the fur was shaved from the head and dorsal side of the body. The labeled peptides (100 μg) or Cy5.5 free dye (~78 μg) were injected intravenously (i.v.) via the tail vein. The animals were imaged at 2, 4, 6, and 8 h post-injection using the time-domain optical imager eXplore Optix 670 (GE Healthcare Systems/ART Inc). The imaging protocols were described in detail previously.
Briefly, each animal was positioned on a platform (dorsal side facing up) that was then placed on a heated plate (at 36°C) in the imaging system. The whole-body scan or selected region of interest (ROI) scan (i.e., head) was performed as described. […] The fluorescence emission at 700 nm was collected by a highly sensitive photomultiplier tube offset by 3 mm for diffuse optical topography reconstruction. […] A pulsed light source and time-resolved detection allows the system to resolve the nanosecond timescale of fluorescence emission. […] The data were thus recorded as TPSF and the images were reconstructed as fluorescence concentration maps. Average fluorescence concentration data from ROI placed around the heads were subsequently analyzed using the software ART Optix Optiview (ART Inc., Montreal, QC, Canada). […] Brains were then extracted and scanned ex-vivo for fluorescence concentration […]

[8] = Aβ immunohistochemistry in brain sections (6E10 antibody); type: in vivo, mouse; settings: 100 μg i.v., brains collected 8 h post-injection; wild-type and Abcg2-KO mice; 3 animals per group
From the text: The sections were also counter-stained with fluorescein-labeled lectin, Ulex europeaus agglutinin (UEA-I), as described to visualize cerebral vessels.

[9] = Aβ-Cy5.5 conjugate stability in serum; type: in vitro ADME, bovine; settings: 1:8 v/v, ~1 μg Aβ, 37°C, 0–8 h, Tricine-SDS-PAGE, optical imaging and 6E10 immunoblot
Method: To evaluate Aβ-Cy5.5 conjugate stability in serum, the labeled peptide (5-μL volume containing ~1 μg Aβ) was added to either 35 μL of (non-inactivated) FBS or 35 μL of 1 × PBS (1: 8 dilution) and incubated at 37°C for 0, 0.5, 1, 2, 4, 6, and 8 hours, respectively. The peptides (4 μL) from each of the above reactions (40 μL/reaction) were added to the loading buffer, boiled for 10 min, and resolved on a 16% Tricine-SDS-PAGE as described. The tricine-SDS-PAGE gel was scanned in the optical imager; the peptides in the gel were then transferred to a PVDF membrane for immuno-blotting. A mouse monoclonal anti-human Aβ antibody 6E10 (1:1000 dilution) and the secondary HRP-conjugated donkey anti-mouse IgG antibody (1:5000 dilution) were used for immunodetection. ECL plus detection reagents were applied to the blots and the blots were exposed to autoradiography films.

[10] = in vivo, cited from earlier work
Method: Head ROI imaging protocols were initiated 2 hours after tracer injection, allowing 3–4 circulation half-lives; therefore, measured head fluorescence concentration was primarily indicative of the brain-accumulated/retained tracer, with small contribution of circulating tracer.

Compound: COc1cc2c(cc1OC)CN(CCc1ccc(NC(=O)c3cccc4c(=O)c5cccc(OC)c5[nH]c34)cc1)CC2 [GF120918]
Effect on brain uptake of [3H]-Aβ1-40 [1]: strongly enhanced

Compound: Aβ1-40: Synthetic human Aβ1-40 peptide purchased from Biopeptides Co.
Proportion of peptide present as monomers [2]: > 95%

Head ROI fluorescence, wild-type versus Abcg2-KO [3]: not different
Fluorescence in the head ROI after circulation time [4]: close to background
Head ROI fluorescence, wild-type versus Abcb1-KO [6]: not different
Compound: Cy5.5
Plasma half-life [5]: about 30 min
Time in which majority of the dye is cleared from the body [5]: 2 h

Compound: Cy5.5-labeled Aβ1-40: Synthetic human Aβ1-40 peptide labeled with the near-infrared fluorescent dye Cy5.5 (Mono NHS ester)
Whole-body elimination of fluorescence [7]: almost complete disappearance of fluorescence from the body between 2 h and 4 h after injection
Immunoreactive Aβ in brain sections [8]: detected
Stability of conjugate in PBS ([9]; 1 × PBS): no appreciable reductions of intact Aβ peptide bands
Stability of conjugate in serum ex vivo ([9]; non-inactivated FBS): mostly intact in the serum ex vivo up to 8 hours

Compound: [^123I]-Aβ1-40: intracerebrally microinfused 123I-labeled Aβ1-40, literature SPECT study
Brain clearance short t1/2 (bi-phasic) ([10]; monkey): 1.1 ~ 2.7 hours

Compound: [^125I]-Aβ1-40: brain-injected 125I-labeled Aβ1-40 peptide, literature
Brain clearance t1/2 [10]: 25 min
